These results are taken from PMC11892609.

The labels stand for the following.
B1: WT mTMIE-HA-Avi [mouse] / Fyn-mTMC2-mCherry [mouse] (parent)
chain 1: QLVEPSTAPPKPKPPPLTKETVVFWDMRLWHVVGIFSLFVLSIIITLCCVFNCRVPRTRKEIEARYLQRKAAKMYTDKLETVPPLNELTEIPGEDKKKKKKDSVDTVAIKVEEDEKNEAKKKGEK
chain 2: MSPQLKSLDEEGDKSARRPTRKQTSRAACPQDGHRAQSSRKDPAKGSPRPGSSRKKQMEHGSYHKGLQGQKPRKVERSLQGRKKDRRTSLKEQRASPKKEREALRKEAGKQLRKPRSTSLGSSVSTGDSLSEEELAQILEQVEEKKKLITTVRNKPWPMAKKLRELREAQAFVEKYEGALGKGKGKHLYAYRMMMAKKWVKFKRDFDNFKTQCIPWEMKIKDIESHFGSSVASYFIFLRWMYGVNLVLFGLIFGLVIIPEVLMGMPYGSIPRKTVPRAEEERAMDFSVLWDFEGYIKYSALFYGYYNNQRTIGWLRYRLPMAYFMVGVSVFGYSLMIVIRSMASNTQGSTSEGDSDSFTFSFKMFTSWDYLIGNSETADNKYVSITTSFKESIVDEQESNKEGNIHLTRFLRVLANFLILCCLCGSGYLIYFVVKRSQEFSKMQNVSWYERNEVEIVMSLLGMFCPPLFETIAALENYHPRTGLKWQLGRIFALFLGNLYTFLLALMDDVHLKLSNEEKIKNITHWTLFNYYNSSGGNESVPRPPPHPADVPRGSCWETAVGIEFMRLTVSDMLVTYLTILVGDFLRACFVRFMNHCWCWDLEAGFPSYAEFDISGNVLGLIFNQGMIWMGSFYAPGLVGINVLRLLTSMYFQCWAVMSSNVPHERVFKASRSNNFYMGLLLLVLFLSLLPVAYTVMSLPPSFDCGPFSGKNRMYDVLHETIENDFPKFLGKIFAFLANPGLIIPAILLMFLAIYYLNSVSKSLSRANAQLRKKIQALREVEKNHKSIKGKAIVTYSEDTIKNSSKNATQIHLTKEEPTSHSSSQIQTLDKKAQGPHTSSTEGGASPSTSWHHVGSQPPRGRRDSGQPQSQTYTGRSPSGKRTQRPHN

The experiment covers variants of B1. Nature of the experiment: pull-down with NeutrAvidin beads, western blot quantification. Conditions: PK-HEK293T cells co-expressing Fyn-mTMC2-mCherry and mTMIE-HA-Avi, three experiments, parent: 1, read off a plot.
As for chain 1 QLVEPSTAPPKPKPPPLTKETVVFWDMRLWHVVGIFSLFVLSIIITLSSVFNCRVPRTRKEIEARYLQRKAAKMYTDKLETVPPLNELTEIPGEDKKKKKKDSVDTVAIKVEEDEKNEAKKKGEK, the ratio to parent worked out at 1.7.
